Columns and labels:
SEL1L (human) = SEL1L (human) (UniProt Q9UBV2); assay: co-IP with anti-FLAG, mass spectrometry; lysate of cells with N-FLAG B3GNT2
SLC25A5 (human) = SLC25A5 (human) (UniProt P05141); assay: as above
ARHGEF2 (human) = ARHGEF2 (human) (UniProt Q92974); assay: as above
EPRS (human) = EPRS (human) (UniProt P07814); assay: as above
HSPA8 (human) = HSPA8 (human) (UniProt P11142); assay: co-IP, anti-FLAG, lysate of cells with N-FLAG B3GNT2; mass spectrometry
GGCT (human) = GGCT (human) (UniProt O75223); assay: as above
RPL13 (human) = RPL13 (human) (UniProt P26373); assay: as above
C1orf68 (human) = C1orf68 (human) (UniProt Q5T750); assay: as above
MOV10 (human) = biological target: T1, MOV10 (human) (UniProt Q9HCE1); assay: as above
T1 sequence (looked up): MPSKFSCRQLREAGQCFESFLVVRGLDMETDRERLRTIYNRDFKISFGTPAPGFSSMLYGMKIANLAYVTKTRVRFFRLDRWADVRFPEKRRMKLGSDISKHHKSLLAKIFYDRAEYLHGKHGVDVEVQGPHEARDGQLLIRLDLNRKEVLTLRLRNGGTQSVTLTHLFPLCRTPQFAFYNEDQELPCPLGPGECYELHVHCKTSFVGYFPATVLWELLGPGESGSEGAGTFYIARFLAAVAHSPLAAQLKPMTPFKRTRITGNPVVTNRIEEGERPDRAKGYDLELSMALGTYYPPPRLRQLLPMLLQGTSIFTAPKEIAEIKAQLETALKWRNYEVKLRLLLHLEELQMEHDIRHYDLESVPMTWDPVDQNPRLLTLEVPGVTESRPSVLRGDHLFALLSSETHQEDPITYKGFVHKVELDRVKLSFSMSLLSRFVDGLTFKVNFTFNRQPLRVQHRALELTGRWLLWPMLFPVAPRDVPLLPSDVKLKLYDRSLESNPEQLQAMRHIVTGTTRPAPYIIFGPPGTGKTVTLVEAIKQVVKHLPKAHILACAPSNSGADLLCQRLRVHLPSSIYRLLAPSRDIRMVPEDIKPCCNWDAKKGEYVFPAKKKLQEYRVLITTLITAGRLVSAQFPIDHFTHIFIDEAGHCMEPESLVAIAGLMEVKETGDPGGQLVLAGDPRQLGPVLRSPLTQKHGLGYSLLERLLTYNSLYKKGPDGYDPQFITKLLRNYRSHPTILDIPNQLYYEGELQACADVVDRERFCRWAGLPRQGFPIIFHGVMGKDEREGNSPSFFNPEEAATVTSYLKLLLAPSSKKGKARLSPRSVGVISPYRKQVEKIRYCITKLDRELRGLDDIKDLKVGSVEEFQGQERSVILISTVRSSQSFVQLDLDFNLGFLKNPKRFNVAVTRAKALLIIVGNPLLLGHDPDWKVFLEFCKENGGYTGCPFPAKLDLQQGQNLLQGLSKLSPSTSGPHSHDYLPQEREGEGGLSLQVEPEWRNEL

SAMM50 (human) = SAMM50 (human) (UniProt Q9Y512); assay: as above
HUWE1 (human) = HUWE1 (human) (UniProt Q7Z6Z7); assay: as above
CAT (human) = CAT (human) (UniProt P04040); assay: as above
RPL18 (human) = RPL18 (human) (UniProt Q07020); assay: as above
MAGED2 (human) = MAGED2 (human) (UniProt Q9UNF1); assay: IgG control IP from lysate of cells overexpressing N-FLAG B3GNT2, then mass spectrometry
EIF3I (human) = EIF3I (human) (UniProt Q13347); assay: as above
SUPT16H (human) = SUPT16H (human) (UniProt Q9Y5B9); assay: as above
TFAM (human) = TFAM (human) (UniProt Q00059); assay: as above
SRP14 (human) = SRP14 (human) (UniProt P37108); assay: as above
KHDRBS1 (human) = KHDRBS1 (human) (UniProt Q07666); assay: as above
CPSF6 (human) = CPSF6 (human) (UniProt Q16630); assay: as above
VIM (human) = VIM (human) (UniProt P08670); assay: as above
ANXA2 (human) = ANXA2 (human) (UniProt P07355); assay: as above
TCP1 (human) = TCP1 (human) (UniProt P17987); assay: as above
TAF15 (human) = TAF15 (human) (UniProt Q92804); assay: as above
TIMP3 (human) = TIMP3 (human) (UniProt P35625); assay: as above
CASC3 (human) = CASC3 (human) (UniProt O15234); assay: as above
Chain of CASC3 (human) (O15234 whole entry): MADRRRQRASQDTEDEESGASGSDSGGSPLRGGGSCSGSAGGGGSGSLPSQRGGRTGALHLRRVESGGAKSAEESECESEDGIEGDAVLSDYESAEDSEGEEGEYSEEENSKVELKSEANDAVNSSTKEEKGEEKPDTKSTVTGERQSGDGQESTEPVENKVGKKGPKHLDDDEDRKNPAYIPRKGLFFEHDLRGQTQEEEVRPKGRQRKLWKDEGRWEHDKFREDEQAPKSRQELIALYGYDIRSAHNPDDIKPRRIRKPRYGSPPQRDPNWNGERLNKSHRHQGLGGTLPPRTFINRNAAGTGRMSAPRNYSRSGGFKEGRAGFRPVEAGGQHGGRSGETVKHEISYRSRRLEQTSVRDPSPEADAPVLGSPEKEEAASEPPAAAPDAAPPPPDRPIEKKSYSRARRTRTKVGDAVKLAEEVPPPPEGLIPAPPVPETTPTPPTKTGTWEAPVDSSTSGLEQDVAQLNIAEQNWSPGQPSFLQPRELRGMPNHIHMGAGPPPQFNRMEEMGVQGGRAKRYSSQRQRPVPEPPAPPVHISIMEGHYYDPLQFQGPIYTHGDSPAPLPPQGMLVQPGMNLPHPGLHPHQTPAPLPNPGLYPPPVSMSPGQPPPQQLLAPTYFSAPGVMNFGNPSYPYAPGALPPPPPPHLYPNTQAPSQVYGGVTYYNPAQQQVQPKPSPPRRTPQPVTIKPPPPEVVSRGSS

Chain of ANXA2 (human) (P07355 other isoform, or with tags, fused parts or gaps limits assumed): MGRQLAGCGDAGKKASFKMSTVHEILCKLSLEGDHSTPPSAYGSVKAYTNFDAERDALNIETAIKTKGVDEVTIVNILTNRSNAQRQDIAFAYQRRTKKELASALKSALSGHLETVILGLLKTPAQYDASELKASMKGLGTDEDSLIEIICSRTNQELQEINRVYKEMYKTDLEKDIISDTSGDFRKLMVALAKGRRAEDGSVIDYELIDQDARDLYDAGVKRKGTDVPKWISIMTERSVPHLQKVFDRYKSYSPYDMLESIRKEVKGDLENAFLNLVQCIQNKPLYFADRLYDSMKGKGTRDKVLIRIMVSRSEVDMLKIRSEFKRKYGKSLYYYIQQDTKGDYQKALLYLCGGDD
Chain of KHDRBS1 (human) (Q07666 whole entry): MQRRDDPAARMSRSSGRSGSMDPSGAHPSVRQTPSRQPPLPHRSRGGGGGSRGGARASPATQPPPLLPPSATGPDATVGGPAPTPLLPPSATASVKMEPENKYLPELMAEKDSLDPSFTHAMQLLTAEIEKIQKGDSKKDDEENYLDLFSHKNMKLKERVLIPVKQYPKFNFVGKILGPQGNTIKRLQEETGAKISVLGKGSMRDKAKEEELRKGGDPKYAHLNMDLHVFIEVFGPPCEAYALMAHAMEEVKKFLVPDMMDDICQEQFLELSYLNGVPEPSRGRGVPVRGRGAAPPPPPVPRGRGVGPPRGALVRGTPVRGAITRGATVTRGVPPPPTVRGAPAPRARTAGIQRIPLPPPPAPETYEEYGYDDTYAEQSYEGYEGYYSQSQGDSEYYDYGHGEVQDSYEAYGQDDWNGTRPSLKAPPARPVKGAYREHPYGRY
Chain of CPSF6 (human) (Q16630 other isoform, or with tags, fused parts or gaps limits assumed): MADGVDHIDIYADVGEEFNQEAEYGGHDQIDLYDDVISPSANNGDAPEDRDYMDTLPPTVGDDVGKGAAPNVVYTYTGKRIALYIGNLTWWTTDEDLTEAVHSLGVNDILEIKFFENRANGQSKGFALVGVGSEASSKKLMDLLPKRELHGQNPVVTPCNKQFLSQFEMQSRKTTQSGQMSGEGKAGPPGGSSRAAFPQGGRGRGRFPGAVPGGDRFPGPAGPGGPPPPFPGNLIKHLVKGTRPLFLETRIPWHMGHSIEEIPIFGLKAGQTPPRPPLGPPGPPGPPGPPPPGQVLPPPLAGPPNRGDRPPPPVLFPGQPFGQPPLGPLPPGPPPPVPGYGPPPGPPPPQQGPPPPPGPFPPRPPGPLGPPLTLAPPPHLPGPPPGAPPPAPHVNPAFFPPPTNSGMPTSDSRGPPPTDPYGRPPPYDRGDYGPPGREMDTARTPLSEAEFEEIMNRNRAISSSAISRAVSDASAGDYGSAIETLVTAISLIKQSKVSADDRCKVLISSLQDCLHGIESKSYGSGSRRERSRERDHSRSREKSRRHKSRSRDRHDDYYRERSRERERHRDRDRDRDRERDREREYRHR
Chain of GGCT (human) (O75223 whole entry): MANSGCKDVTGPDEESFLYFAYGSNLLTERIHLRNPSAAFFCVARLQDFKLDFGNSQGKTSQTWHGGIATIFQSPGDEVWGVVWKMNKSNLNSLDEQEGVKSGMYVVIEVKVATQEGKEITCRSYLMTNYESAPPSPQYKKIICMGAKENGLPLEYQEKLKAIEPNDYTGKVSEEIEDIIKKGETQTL
Chain of TCP1 (human) (P17987 whole entry): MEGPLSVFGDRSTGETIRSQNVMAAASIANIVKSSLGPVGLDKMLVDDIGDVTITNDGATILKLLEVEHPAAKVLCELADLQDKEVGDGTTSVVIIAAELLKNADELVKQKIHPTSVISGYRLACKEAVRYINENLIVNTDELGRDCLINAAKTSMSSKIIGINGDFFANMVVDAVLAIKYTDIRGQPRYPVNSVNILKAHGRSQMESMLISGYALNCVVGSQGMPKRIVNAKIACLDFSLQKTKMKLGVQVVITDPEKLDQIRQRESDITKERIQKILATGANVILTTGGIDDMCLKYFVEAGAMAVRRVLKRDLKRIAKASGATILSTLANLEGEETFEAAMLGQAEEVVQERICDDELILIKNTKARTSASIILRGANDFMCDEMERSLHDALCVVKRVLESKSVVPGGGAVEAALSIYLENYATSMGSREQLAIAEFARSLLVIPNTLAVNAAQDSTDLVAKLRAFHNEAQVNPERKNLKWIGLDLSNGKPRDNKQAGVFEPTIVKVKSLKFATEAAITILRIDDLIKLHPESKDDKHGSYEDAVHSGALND
Chain of HSPA8 (human) (P11142 2-646 limits assumed): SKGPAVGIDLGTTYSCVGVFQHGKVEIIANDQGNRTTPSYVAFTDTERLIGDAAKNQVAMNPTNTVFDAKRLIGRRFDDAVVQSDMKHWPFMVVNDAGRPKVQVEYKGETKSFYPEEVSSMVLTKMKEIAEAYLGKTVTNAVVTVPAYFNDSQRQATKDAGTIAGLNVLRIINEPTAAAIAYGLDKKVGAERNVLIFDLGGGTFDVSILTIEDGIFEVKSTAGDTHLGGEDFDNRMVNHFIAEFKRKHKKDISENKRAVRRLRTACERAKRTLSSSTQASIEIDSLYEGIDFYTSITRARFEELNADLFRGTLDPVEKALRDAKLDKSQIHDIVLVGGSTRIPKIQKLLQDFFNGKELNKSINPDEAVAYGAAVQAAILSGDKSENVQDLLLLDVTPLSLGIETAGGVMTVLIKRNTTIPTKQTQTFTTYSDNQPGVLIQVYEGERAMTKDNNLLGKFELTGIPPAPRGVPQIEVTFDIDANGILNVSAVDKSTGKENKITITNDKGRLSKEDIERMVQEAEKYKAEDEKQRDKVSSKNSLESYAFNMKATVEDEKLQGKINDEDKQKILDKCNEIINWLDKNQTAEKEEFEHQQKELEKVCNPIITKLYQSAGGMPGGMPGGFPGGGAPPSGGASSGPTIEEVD
Chain of EIF3I (human) (Q13347 whole entry): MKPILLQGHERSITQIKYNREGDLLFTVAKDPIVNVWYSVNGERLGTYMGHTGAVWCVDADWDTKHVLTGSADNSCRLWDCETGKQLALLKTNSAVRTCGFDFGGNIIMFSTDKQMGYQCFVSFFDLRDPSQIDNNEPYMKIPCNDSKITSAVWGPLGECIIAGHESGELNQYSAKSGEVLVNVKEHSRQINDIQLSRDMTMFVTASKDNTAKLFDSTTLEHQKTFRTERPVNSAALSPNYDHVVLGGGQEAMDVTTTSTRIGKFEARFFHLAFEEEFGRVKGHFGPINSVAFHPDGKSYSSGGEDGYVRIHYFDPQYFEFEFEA
Chain of SUPT16H (human) (Q9Y5B9 2-1047 limits assumed): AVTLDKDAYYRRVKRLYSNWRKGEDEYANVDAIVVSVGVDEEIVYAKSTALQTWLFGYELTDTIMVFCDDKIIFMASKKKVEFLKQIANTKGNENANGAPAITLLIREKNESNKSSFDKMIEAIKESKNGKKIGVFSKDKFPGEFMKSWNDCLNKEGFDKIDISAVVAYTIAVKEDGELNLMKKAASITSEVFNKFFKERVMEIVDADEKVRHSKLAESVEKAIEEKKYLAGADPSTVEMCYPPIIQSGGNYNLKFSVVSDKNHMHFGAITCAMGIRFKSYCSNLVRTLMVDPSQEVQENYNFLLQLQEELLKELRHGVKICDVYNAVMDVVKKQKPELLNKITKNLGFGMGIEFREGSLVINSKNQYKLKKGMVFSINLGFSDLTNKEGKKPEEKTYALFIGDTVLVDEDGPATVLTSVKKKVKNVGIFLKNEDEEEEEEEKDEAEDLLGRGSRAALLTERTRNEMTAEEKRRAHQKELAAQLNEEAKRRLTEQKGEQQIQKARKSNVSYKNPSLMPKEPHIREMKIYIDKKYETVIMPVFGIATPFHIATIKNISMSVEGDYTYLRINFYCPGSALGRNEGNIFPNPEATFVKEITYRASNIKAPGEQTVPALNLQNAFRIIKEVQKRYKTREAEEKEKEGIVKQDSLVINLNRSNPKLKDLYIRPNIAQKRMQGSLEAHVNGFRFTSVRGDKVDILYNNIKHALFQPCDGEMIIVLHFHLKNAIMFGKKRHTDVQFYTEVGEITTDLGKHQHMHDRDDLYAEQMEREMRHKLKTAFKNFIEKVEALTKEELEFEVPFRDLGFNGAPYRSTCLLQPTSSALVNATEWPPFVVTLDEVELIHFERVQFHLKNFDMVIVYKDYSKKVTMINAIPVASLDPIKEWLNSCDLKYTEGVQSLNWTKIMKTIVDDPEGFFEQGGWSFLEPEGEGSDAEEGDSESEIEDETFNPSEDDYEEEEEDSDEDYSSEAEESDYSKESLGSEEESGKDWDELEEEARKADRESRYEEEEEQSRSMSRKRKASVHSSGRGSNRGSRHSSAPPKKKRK
Chain of SRP14 (human) (P37108 2-136 limits assumed): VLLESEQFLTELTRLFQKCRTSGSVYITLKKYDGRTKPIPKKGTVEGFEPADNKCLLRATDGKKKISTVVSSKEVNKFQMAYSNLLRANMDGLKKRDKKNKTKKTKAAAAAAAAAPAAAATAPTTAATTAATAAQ

Q: For “N-terminal FLAG tagged B3GNT2 (from UniProt Q9NY97 1-397) (enzyme)”, which co-IP mass spectrometry count (SEL1L (human)) is on record?
A: Its co-IP mass spectrometry count is 3.

Q: And the co-IP mass spectrometry count (SLC25A5 (human))?
A: The co-IP mass spectrometry count was 19.

Q: What about the co-IP mass spectrometry count (ARHGEF2 (human)) of the same substance?
A: The co-IP mass spectrometry count was 0.

Q: What about the co-IP mass spectrometry count (EPRS (human)) of the same substance?
A: The co-IP mass spectrometry count was 3.

Q: What about the co-IP mass spectrometry count (HSPA8 (human)) of the same substance?
A: The co-IP mass spectrometry count was 41.

Q: And the co-IP mass spectrometry count (GGCT (human))?
A: The co-IP mass spectrometry count was 3.

Q: And the co-IP mass spectrometry count (RPL13 (human))?
A: Its co-IP mass spectrometry count is 15.

Q: And the co-IP mass spectrometry count (C1orf68 (human))?
A: Its co-IP mass spectrometry count is 13.

Q: And the co-IP mass spectrometry count (MOV10 (human))?
A: Its co-IP mass spectrometry count is 4.

Q: And the co-IP mass spectrometry count (SAMM50 (human))?
A: The co-IP mass spectrometry count was 3.

Q: What about the co-IP mass spectrometry count (HUWE1 (human)) of the same substance?
A: Its co-IP mass spectrometry count is 3.

Q: What about the co-IP mass spectrometry count (CAT (human)) of the same substance?
A: Its co-IP mass spectrometry count is 6.

Q: What about the co-IP mass spectrometry count (RPL18 (human)) of the same substance?
A: The co-IP mass spectrometry count was 11.

Q: Which co-IP mass spectrometry count (N-term IgG) (MAGED2 (human)) does the source give for “IgG control (Millipore Sigma 12-371) (antibody)” here?
A: Its co-IP mass spectrometry count (N-term IgG) is 0.

Q: And the co-IP mass spectrometry count (N-term IgG) (EIF3I (human))?
A: Its co-IP mass spectrometry count (N-term IgG) is 0.

Q: And the co-IP mass spectrometry count (N-term IgG) (SUPT16H (human))?
A: Its co-IP mass spectrometry count (N-term IgG) is 0.

Q: What about the co-IP mass spectrometry count (N-term IgG) (TFAM (human)) of the same substance?
A: Its co-IP mass spectrometry count (N-term IgG) is 0.

Q: And the co-IP mass spectrometry count (N-term IgG) (SRP14 (human))?
A: Its co-IP mass spectrometry count (N-term IgG) is 0.

Q: What about the co-IP mass spectrometry count (N-term IgG) (KHDRBS1 (human)) of the same substance?
A: The co-IP mass spectrometry count (N-term IgG) was 10.

Q: What about the co-IP mass spectrometry count (N-term IgG) (CPSF6 (human)) of the same substance?
A: The co-IP mass spectrometry count (N-term IgG) was 28.

Q: And the co-IP mass spectrometry count (N-term IgG) (VIM (human))?
A: The co-IP mass spectrometry count (N-term IgG) was 452.

Q: What about the co-IP mass spectrometry count (N-term IgG) (ANXA2 (human)) of the same substance?
A: Its co-IP mass spectrometry count (N-term IgG) is 15.

Q: And the co-IP mass spectrometry count (N-term IgG) (TCP1 (human))?
A: The co-IP mass spectrometry count (N-term IgG) was 0.

Q: What about the co-IP mass spectrometry count (N-term IgG) (TAF15 (human)) of the same substance?
A: The co-IP mass spectrometry count (N-term IgG) was 10.

Q: And the co-IP mass spectrometry count (N-term IgG) (TIMP3 (human))?
A: The co-IP mass spectrometry count (N-term IgG) was 0.

Q: And the co-IP mass spectrometry count (N-term IgG) (CASC3 (human))?
A: The co-IP mass spectrometry count (N-term IgG) was 0.
